Data taken from the supplement of paper PMC11136658.

Test system: peptide library, one residue held at a place counted from the Y acceptor
Assay: relative phosphorylation of the sub-library (ratio to the mean residue at this position); higher = residue favoured
In short: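 Biotinylated Tyr-centred peptide library mixtures, each fixing one residue at one position from −5 to +5, were incubated with purified recombinant kinases in 384-well plates for 90 min with 50 μM ATP plus γ-32P-ATP. Streptavidin membranes captured the peptides, which were rinsed and quantified by phosphorimaging and ImageQuant. At each position, intensities were divided by the sum of the 18 randomized residues (16 for the Ser/Thr-free library) and multiplied by that number. Each value is phosphorylation relative to the mean randomized residue.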

INSR, construct: aa1110-end, human, sequence (P06213 1110-1382, looked up): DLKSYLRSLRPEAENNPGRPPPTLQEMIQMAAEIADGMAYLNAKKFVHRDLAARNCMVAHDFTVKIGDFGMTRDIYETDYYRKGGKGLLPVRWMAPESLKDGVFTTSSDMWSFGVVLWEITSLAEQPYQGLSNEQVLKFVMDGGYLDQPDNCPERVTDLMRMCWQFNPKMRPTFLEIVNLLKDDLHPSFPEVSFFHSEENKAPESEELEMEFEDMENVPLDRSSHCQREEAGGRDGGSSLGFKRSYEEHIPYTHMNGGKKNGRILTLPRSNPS
FYN, construct: Full length, human, sequence (P06241 whole entry, looked up): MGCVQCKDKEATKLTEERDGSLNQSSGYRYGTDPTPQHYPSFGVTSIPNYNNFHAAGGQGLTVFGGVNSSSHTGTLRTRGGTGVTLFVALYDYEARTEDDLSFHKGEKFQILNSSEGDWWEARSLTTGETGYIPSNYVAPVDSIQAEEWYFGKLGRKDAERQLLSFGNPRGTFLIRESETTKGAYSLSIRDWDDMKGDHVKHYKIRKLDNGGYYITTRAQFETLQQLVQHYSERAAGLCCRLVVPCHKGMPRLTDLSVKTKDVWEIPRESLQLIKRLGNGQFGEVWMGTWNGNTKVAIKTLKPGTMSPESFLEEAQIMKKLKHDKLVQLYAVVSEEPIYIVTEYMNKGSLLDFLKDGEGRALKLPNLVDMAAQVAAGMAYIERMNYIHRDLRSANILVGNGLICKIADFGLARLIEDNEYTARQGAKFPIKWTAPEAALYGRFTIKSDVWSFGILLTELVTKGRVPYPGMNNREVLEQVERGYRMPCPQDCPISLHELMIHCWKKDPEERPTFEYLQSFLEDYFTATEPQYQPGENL
HCK, construct: aa230-497, human, sequence (P08631 230-497, looked up): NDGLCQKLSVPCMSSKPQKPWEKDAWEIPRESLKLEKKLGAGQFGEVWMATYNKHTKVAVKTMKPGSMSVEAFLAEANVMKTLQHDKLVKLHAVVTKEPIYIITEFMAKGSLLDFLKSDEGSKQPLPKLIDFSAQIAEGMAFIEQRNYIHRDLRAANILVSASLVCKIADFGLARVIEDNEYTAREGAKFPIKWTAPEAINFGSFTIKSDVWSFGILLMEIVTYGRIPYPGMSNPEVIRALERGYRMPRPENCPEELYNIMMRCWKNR

FYN, construct: Full length, human (from UniProt P06241)
relative phosphorylation
Conditions	at +1	at +2	at +3	at +4	at +5	at -1	at -2	at -3	at -4	at -5
A fixed	1.68	1.07	0.544	0.857	0.903	0.622	1.04	0.787	1.08	1.02
D fixed	0.925	0.762	0.546	1.02	0.987	0.867	1.77	2.4	1.64	1.5
E fixed	1.79	1.76	0.601	1	0.951	1.08	1.95	2.8	1.89	1.35
F fixed	0.656	1.08	3.35	1.23	1.16	0.885	0.483	0.803	0.997	0.993
G fixed	3.49	0.728	0.941	1.03	1.03	0.467	1.38	0.91	1.17	1.14
H fixed	0.53	0.515	0.732	0.901	1.01	0.419	0.77	0.814	0.726	0.924
I fixed	0.861	1.06	1.72	0.735	0.718	3.38	0.717	0.641	0.796	0.833
K fixed	0.231	0.61	0.397	1.12	1.04	0.221	0.515	0.469	0.622	0.901
L fixed	0.635	1.02	1.39	0.912	0.92	1.76	0.716	0.672	0.906	0.933
M fixed	0.992	1.05	0.894	1.04	0.858	0.806	0.667	0.729	0.784	0.904
N fixed	0.504	0.806	0.455	0.81	1.03	0.33	1.34	1.26	0.903	0.97
P fixed	0.291	0.734	0.571	0.945	1.48	1.2	1.43	0.969	1.32	1.17
Q fixed	0.906	0.951	0.539	1.14	0.81	0.521	1.2	0.965	1.08	0.978
R fixed	0.311	0.79	0.728	1.14	1.22	0.227	0.612	0.56	0.744	0.886
S fixed	1.01	1.32	0.628	0.977	1.03	0.44	1.23	0.945	0.813	0.865
T fixed	0.895	1.39	0.92	0.861	0.996	1.33	0.774	0.79	0.733	0.779
V fixed	0.935	1.28	1.4	0.882	0.722	2.95	0.793	0.649	0.821	0.84
W fixed	1.36	1.08	1.64	1.38	1.14	0.497	0.606	0.838	0.973	1
pThr fixed	1.64	2.15	0.627	0.773	0.686	4.17	1.92	1.58	1.42	1.31
pTyr fixed	3.45	1.96	0.89	1.23	1.11	1.34	1.37	1.71	1.52	1.32

HCK, construct: aa230-497, human (from UniProt P08631)
relative phosphorylation
Conditions	at +1	at +2	at +3	at +4	at +5	at -1	at -2	at -3	at -4	at -5
A fixed	1.66	0.982	0.656	0.876	1.06	0.652	1.08	0.95	1.15	1.1
D fixed	0.917	0.585	0.323	0.623	0.676	0.844	1.29	1.43	1.16	1.18
E fixed	1.55	1.19	0.316	0.766	0.746	1.04	1.49	1.65	1.47	1.01
F fixed	0.785	1	2.12	1.08	1.05	1.09	0.717	1.11	0.966	0.987
G fixed	2.28	0.813	0.862	1.11	1.09	0.456	1.31	1.02	1.31	1.18
H fixed	0.812	0.659	0.992	1.09	0.964	0.768	0.915	1.01	0.85	0.907
I fixed	0.815	1.15	1.84	0.87	0.769	2.91	0.843	0.718	0.977	0.922
K fixed	0.253	0.807	0.675	1.31	1.27	0.259	0.633	0.543	0.629	0.91
L fixed	0.816	1.03	1.49	0.907	0.984	2.15	1	0.956	1.18	1.09
M fixed	1.37	1.13	1.1	1.31	1.06	1.12	0.808	0.964	1.11	1.1
N fixed	0.612	0.95	0.477	0.801	0.853	0.414	1.24	1.15	0.817	0.995
P fixed	0.265	0.975	0.758	0.902	1.26	0.769	1.06	1.06	1.15	1.16
Q fixed	0.923	0.888	0.508	0.99	0.731	0.521	1.04	0.867	0.934	0.99
R fixed	0.369	0.993	1.18	1.49	1.51	0.228	0.667	0.58	0.685	0.772
S fixed	1.12	1.17	0.663	0.972	1.05	0.489	1.18	1.02	0.761	0.942
T fixed	0.97	1.42	0.706	0.924	0.998	1.35	1.01	0.961	0.709	0.845
V fixed	1.14	1.17	1.36	0.872	0.811	2.24	0.95	0.807	0.925	0.912
W fixed	1.34	1.08	1.98	1.11	1.12	0.698	0.771	1.2	1.21	0.99
pThr fixed	0.949	1.18	0.296	0.431	0.421	2.4	1.22	1.12	1.05	1.09
pTyr fixed	1.46	1.61	0.497	0.628	0.569	1.09	1.21	1.37	1.4	1.1

INSR, construct: aa1110-end, human (from UniProt P06213)
relative phosphorylation
Conditions	at +1	at +2	at +3	at +4	at +5	at -1	at -2	at -3	at -4	at -5
A fixed	1.55	0.678	0.593	0.95	0.917	1.09	1.09	0.925	1.09	1.07
D fixed	0.383	0.584	0.264	1.04	0.792	2.65	1.14	1.34	1.3	1.14
E fixed	0.627	1.31	0.234	0.976	0.731	1.14	1.26	1.48	1.31	0.983
F fixed	1.41	1.13	1.62	1.02	1.56	0.696	0.621	0.912	1.03	0.834
G fixed	0.731	0.419	0.545	0.809	0.858	0.554	1.24	0.872	1.36	1.23
H fixed	1.67	0.915	1.47	1.16	1.17	1.16	0.95	1.11	0.965	0.975
I fixed	1.21	1.16	1.92	0.902	0.978	1.04	0.87	0.616	0.817	0.935
K fixed	0.275	0.602	0.475	0.951	0.919	0.27	0.8	0.861	0.835	1.11
L fixed	0.986	1.35	1.61	0.841	1.14	0.981	0.957	0.867	0.879	0.913
M fixed	2.41	1.53	1.74	1.16	1.08	0.789	0.743	0.929	0.804	0.976
N fixed	0.312	0.941	0.347	0.762	0.813	2.16	1.25	1.51	0.939	1.22
P fixed	0.317	0.706	0.421	0.704	1.05	1.04	1.29	0.905	1.17	0.956
Q fixed	0.805	0.811	0.46	1.19	0.806	0.747	1.22	1.06	1.22	1.1
R fixed	0.227	0.868	0.706	0.953	1.02	0.266	0.831	0.913	0.913	1.13
S fixed	0.926	0.804	0.534	1.07	1.04	0.901	1.18	1.09	0.814	0.896
T fixed	0.946	0.781	0.673	0.843	0.84	0.97	1.08	0.941	0.731	0.828
V fixed	1.45	1.08	1.13	0.968	0.937	0.989	0.796	0.698	0.746	0.798
W fixed	1.76	2.34	3.26	1.69	1.35	0.558	0.684	0.978	1.08	0.902
pThr fixed	1.28	0.717	0.229	0.55	0.612	1.28	1.01	1.11	1.09	0.769
pTyr fixed	1.36	2.45	0.487	1.48	0.585	4.11	1.68	1.51	1.28	0.991
